Measured values from the RNAGym collection of RNA variant scans (doi:10.1093/nar/gkz1192).

B1: CPEB3 Ribozyme (parent)
chain: UAACAGGGGGCCACAGCAGAAGCGUUCACGUCGCAGCCCCUGUCAGAUUCUGGUGAAUCUGCGAAUUCUGCUGUAUAUCUC

Variants of: B1
Assay: self-cleavage, relative activity (ratio to wild type); higher = more cleavage; in vitro, sequencing
Outline: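 After error-prone PCR and barcoding, CPEB3 ribozyme mutant libraries were transcribed with T7 RNA polymerase at 37°C for 5 hours, then given 15 min with DNase I before an EDTA stop, and they cleaved during both steps. Reverse transcription with template switching preceded Illumina sequencing. Relative activity divides a variant's cleaved/total read fraction by the unmutated ribozyme's. At least 5 reads were required per variant, and three batches were averaged.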

Variant	self-cleavage
UAACAGGGGGCCACAGCAGAAGCGUUCACGUCGCAGCCCCUGUCAGAUUCUGGUGAAUCUGCAAAUUCUGCUGUAUAUCCC [G63A U80C]	0.93
UAACAGGGGGCCACAGCAGAAGCGUUCACGUCGCAGCCCCUGUCAGAUUCUGGUGAAUCUGCAAAUUCUGCUGUAUAUCAC [G63A U80A]	0.97
UAACAGGGGGCCACAGCAGAAGCGUUCACGUCGCAGCCCCUGUCAGAUUCUGGUGAAUCUGCGCAUUCUGCUGUAUUUCUC [A64C A77U]	0.25
UAACAGGGGGCCACAGCAGAAGCGUUCACGUCGCAGCCCCUGUCAGAUUCUGGUGAAUCUGCGCAUUCUGCUGUAUGUCUC [A64C A77G]	0.17
UAACAGGGGGCCACAGCAGAAGCGUUCACGUCGCAGCCCCUGUCAGAUUCUGGUGAAUCUGCUAAUUCUGCUGUAUGUCUC [G63U A77G]	1.24
UAACAGGGGGCCACAGCAGAAGCGUUCACGUCGCAGCCCCUGUCAGAUUCUGGUGAAUCUGCCAAUUCUGCUGCAUAUCUC [G63C U74C]	1.21
UAACAGGGGGCCACAGCAGAAGCGUUCACGUCGCAGCCCCUGUCAGAUUCUGGUGAAUCUGCGCAUUCUGCUGUAUAUCUC [A64C]	0.29
UAACAGGGGGCCACAGCAGAAGCGUUCACGUCGCAGCCCCUGUCAGAUUCUGGUGAAUCUGCAAAUUCUGCCGUAUAUCUC [G63A U72C]	0.91
UAACAGGGGGCCACAGCAGAAGCGUUCACGUCGCAGCCCCUGUCAGAUUCUGGUGAAUCUGCAAAUUCUGCAGUAUAUCUC [G63A U72A]	0.59
UAACAGGGGGCCACAGCAGAAGCGUUCACGUCGCAGCCCCUGUCAGAUUCUGGUGAAUCUGCAAAUUCUGCGGUAUAUCUC [G63A U72G]	0.84
UAACAGGGGGCCACAGCAGAAGCGUUCACGUCGCAGCCCCUGUCAGAUUCUGGUGAAUCUGCUAAUUCUGCCGUAUAUCUC [G63U U72C]	1.2
UAACAGGGGGCCACAGCAGAAGCGUUCACGUCGCAGCCCCUGUCAGAUUCUGGUGAAUCUGCUAAUUCUGCUGUAUAUCUU [G63U C81U]	0.99
UAACAGGGGGCCACAGCAGAAGCGUUCACGUCGCAGCCCCUGUCAGAUUCUGGUGAAUCUGCAAAUUCUGCUGUAUACCUC [G63A U78C]	0.82
UAACAGGGGGCCACAGCAGAAGCGUUCACGUCGCAGCCCCUGUCAGAUUCUGGUGAAUCUGCAAAUUCUGCUGUAUAACUC [G63A U78A]	0.93
UAACAGGGGGCCACAGCAGAAGCGUUCACGUCGCAGCCCCUGUCAGAUUCUGGUGAAUCUGCUAAUUCUGCUGAAUAUCUC [G63U U74A]	1.29
UAACAGGGGGCCACAGCAGAAGCGUUCACGUCGCAGCCCCUGUCAGAUUCUGGUGAAUCUGCUAAUUCUGCUGCAUAUCUC [G63U U74C]	1.19
UAACAGGGGGCCACAGCAGAAGCGUUCACGUCGCAGCCCCUGUCAGAUUCUGGUGAAUCUGCUAAUUCUGCUGGAUAUCUC [G63U U74G]	1.21
UAACAGGGGGCCACAGCAGAAGCGUUCACGUCGCAGCCCCUGUCAGAUUCUGGUGAAUCUGCAAAUUCUGCUGUAAAUCUC [G63A U76A]	0.82
UAACAGGGGGCCACAGCAGAAGCGUUCACGUCGCAGCCCCUGUCAGAUUCUGGUGAAUCUGCUGAUUCUGCUGUAUAUCUC [G63U A64G]	0.79
UAACAGGGGGCCACAGCAGAAGCGUUCACGUCGCAGCCCCUGUCAGAUUCUGGUGAAUCUGCUUAUUCUGCUGUAUAUCUC [G63U A64U]	0.43
UAACAGGGGGCCACAGCAGAAGCGUUCACGUCGCAGCCCCUGUCAGAUUCUGGUGAAUCUGCGCAUUCUGCUGUAUAUCUU [A64C C81U]	0.43
UAACAGGGGGCCACAGCAGAAGCGUUCACGUCGCAGCCCCUGUCAGAUUCUGGUGAAUCUGCAAACUCUGCUGUAUAUCUC [G63A U66C]	0.45
UAACAGGGGGCCACAGCAGAAGCGUUCACGUCGCAGCCCCUGUCAGAUUCUGGUGAAUCUGCAAAAUCUGCUGUAUAUCUC [G63A U66A]	0.4

Variant	self-cleavage
UAACAGGGGGCCACAGCAGAAGCGUUCACGUCGCAGCCCCUGUCAGAUUCUGGUGAAUCUGCAAAUUUUGCUGUAUAUCUC [G63A C68U]	0.96
UAACAGGGGGCCACAGCAGAAGCGUUCACGUCGCAGCCCCUGUCAGAUUCUGGUGAAUCUGCUAAUUCUGCUGUAGAUCUC [G63U U76G]	1.17
UAACAGGGGGCCACAGCAGAAGCGUUCACGUCGCAGCCCCUGUCAGAUUCUGGUGAAUCUGCUAAUUCUGCUGUACAUCUC [G63U U76C]	1.12
UAACAGGGGGCCACAGCAGAAGCGUUCACGUCGCAGCCCCUGUCAGAUUCUGGUGAAUCUGCUAAUUCUGCUGUAAAUCUC [G63U U76A]	1.23
UAACAGGGGGCCACAGCAGAAGCGUUCACGUCGCAGCCCCUGUCAGAUUCUGGUGAAUCUGCUAAUUCUGCUGUUUAUCUC [G63U A75U]	1.2
UAACAGGGGGCCACAGCAGAAGCGUUCACGUCGCAGCCCCUGUCAGAUUCUGGUGAAUCUGCUAAUUCUGCUGUGUAUCUC [G63U A75G]	1.14
UAACAGGGGGCCACAGCAGAAGCGUUCACGUCGCAGCCCCUGUCAGAUUCUGGUGAAUCUGCAAAUACUGCUGUAUAUCUC [G63A U67A]	0.31
UAACAGGGGGCCACAGCAGAAGCGUUCACGUCGCAGCCCCUGUCAGAUUCUGGUGAAUCUGCAAAUCCUGCUGUAUAUCUC [G63A U67C]	0.3
UAACAGGGGGCCACAGCAGAAGCGUUCACGUCGCAGCCCCUGUCAGAUUCUGGUGAAUCUGCCAAUUCUGCUGUAUAUCUC [G63C]	0.92
UAACAGGGGGCCACAGCAGAAGCGUUCACGUCGCAGCCCCUGUCAGAUUCUGGUGAAUCUGCUAAUUCUGCUGUAUAUCUC [G63U]	1.09
UAACAGGGGGCCACAGCAGAAGCGUUCACGUCGCAGCCCCUGUCAGAUUCUGGUGAAUCUGCUAAUUCUGCUGUAUAUUUC [G63U C79U]	1.09
UAACAGGGGGCCACAGCAGAAGCGUUCACGUCGCAGCCCCUGUCAGAUUCUGGUGAAUCUGCUAUUUCUGCUGUAUAUCUC [G63U A65U]	0.51
UAACAGGGGGCCACAGCAGAAGCGUUCACGUCGCAGCCCCUGUCAGAUUCUGGUGAAUCUGCUAGUUCUGCUGUAUAUCUC [G63U A65G]	0.5
UAACAGGGGGCCACAGCAGAAGCGUUCACGUCGCAGCCCCUGUCAGAUUCUGGUGAAUCUGCAAAUUCUGCUGUAUUUCUC [G63A A77U]	0.99
UAACAGGGGGCCACAGCAGAAGCGUUCACGUCGCAGCCCCUGUCAGAUUCUGGUGAAUCUGCAAAUUCUGCUGUAUGUCUC [G63A A77G]	0.74
UAACAGGGGGCCACAGCAGAAGCGUUCACGUCGCAGCCCCUGUCAGAUUCUGGUGAAUCUGCCAAUUCUGCUGUAUAUAUC [G63C C79A]	1.09
UAACAGGGGGCCACAGCAGAAGCGUUCACGUCGCAGCCCCUGUCAGAUUCUGGUGAAUCUGCAAAUUCUGCUGUUUAUCUC [G63A A75U]	0.84
UAACAGGGGGCCACAGCAGAAGCGUUCACGUCGCAGCCCCUGUCAGAUUCUGGUGAAUCUGCAAAUUCUGCUGUGUAUCUC [G63A A75G]	0.49
UAACAGGGGGCCACAGCAGAAGCGUUCACGUCGCAGCCCCUGUCAGAUUCUGGUGAAUCUGCAAAUUCUGCUGUAUAUCUU [G63A C81U]	1.07
UAACAGGGGGCCACAGCAGAAGCGUUCACGUCGCAGCCCCUGUCAGAUUCUGGUGAAUCUGCCAAUUCUGCUGUAUAACUC [G63C U78A]	1.01
UAACAGGGGGCCACAGCAGAAGCGUUCACGUCGCAGCCCCUGUCAGAUUCUGGUGAAUCUGCGCACUCUGCUGUAUAUCUC [A64C U66C]	0.24
UAACAGGGGGCCACAGCAGAAGCGUUCACGUCGCAGCCCCUGUCAGAUUCUGGUGAAUCUGCUAACUCUGCUGUAUAUCUC [G63U U66C]	0.42
UAACAGGGGGCCACAGCAGAAGCGUUCACGUCGCAGCCCCUGUCAGAUUCUGGUGAAUCUGCAAAUUCUGCUAUAUAUCUC [G63A G73A]	1.34

Variant	self-cleavage
UAACAGGGGGCCACAGCAGAAGCGUUCACGUCGCAGCCCCUGUCAGAUUCUGGUGAAUCUGCCAACUCUGCUGUAUAUCUC [G63C U66C]	0.37
UAACAGGGGGCCACAGCAGAAGCGUUCACGUCGCAGCCCCUGUCAGAUUCUGGUGAAUCUGCAAAUUCCGCUGUAUAUCUC [G63A U69C]	0.61
UAACAGGGGGCCACAGCAGAAGCGUUCACGUCGCAGCCCCUGUCAGAUUCUGGUGAAUCUGCAAAUUCAGCUGUAUAUCUC [G63A U69A]	0.5
UAACAGGGGGCCACAGCAGAAGCGUUCACGUCGCAGCCCCUGUCAGAUUCUGGUGAAUCUGCGCAUACUGCUGUAUAUCUC [A64C U67A]	0.19
UAACAGGGGGCCACAGCAGAAGCGUUCACGUCGCAGCCCCUGUCAGAUUCUGGUGAAUCUGCUAAUUCUGCUGUAUAACUC [G63U U78A]	0.98
UAACAGGGGGCCACAGCAGAAGCGUUCACGUCGCAGCCCCUGUCAGAUUCUGGUGAAUCUGCUAAUUCUGCUGUAUACCUC [G63U U78C]	0.96
UAACAGGGGGCCACAGCAGAAGCGUUCACGUCGCAGCCCCUGUCAGAUUCUGGUGAAUCUGCUAAUUCUGCUGUAUAUCCC [G63U U80C]	1.11
UAACAGGGGGCCACAGCAGAAGCGUUCACGUCGCAGCCCCUGUCAGAUUCUGGUGAAUCUGCUAAUUCUGCUGUAUAUCAC [G63U U80A]	0.98
UAACAGGGGGCCACAGCAGAAGCGUUCACGUCGCAGCCCCUGUCAGAUUCUGGUGAAUCUGCUAAUUCAGCUGUAUAUCUC [G63U U69A]	0.57
UAACAGGGGGCCACAGCAGAAGCGUUCACGUCGCAGCCCCUGUCAGAUUCUGGUGAAUCUGCUAAUUCUACUGUAUAUCUC [G63U G70A]	0.62
UAACAGGGGGCCACAGCAGAAGCGUUCACGUCGCAGCCCCUGUCAGAUUCUGGUGAAUCUGCAAAUUCUGCUGAAUAUCUC [G63A U74A]	0.33
UAACAGGGGGCCACAGCAGAAGCGUUCACGUCGCAGCCCCUGUCAGAUUCUGGUGAAUCUGCAAAUUCUGCUGCAUAUCUC [G63A U74C]	1.21
UAACAGGGGGCCACAGCAGAAGCGUUCACGUCGCAGCCCCUGUCAGAUUCUGGUGAAUCUGCGCUUUCUGCUGUAUAUCUC [A64C A65U]	0.09
UAACAGGGGGCCACAGCAGAAGCGUUCACGUCGCAGCCCCUGUCAGAUUCUGGUGAAUCUGCGCGUUCUGCUGUAUAUCUC [A64C A65G]	0.16
UAACAGGGGGCCACAGCAGAAGCGUUCACGUCGCAGCCCCUGUCAGAUUCUGGUGAAUCUGCUAAUCCUGCUGUAUAUCUC [G63U U67C]	0.29
UAACAGGGGGCCACAGCAGAAGCGUUCACGUCGCAGCCCCUGUCAGAUUCUGGUGAAUCUGCUAAUACUGCUGUAUAUCUC [G63U U67A]	0.58
UAACAGGGGGCCACAGCAGAAGCGUUCACGUCGCAGCCCCUGUCAGAUUCUGGUGAAUCUGCCAAUUCUGCUGUACAUCUC [G63C U76C]	1.03
UAACAGGGGGCCACAGCAGAAGCGUUCACGUCGCAGCCCCUGUCAGAUUCUGGUGAAUCUGCCAAUACUGCUGUAUAUCUC [G63C U67A]	0.25
UAACAGGGGGCCACAGCAGAAGCGUUCACGUCGCAGCCCCUGUCAGAUUCUGGUGAAUCUGCCAAUCCUGCUGUAUAUCUC [G63C U67C]	0.31
UAACAGGGGGCCACAGCAGAAGCGUUCACGUCGCAGCCCCUGUCAGAUUCUGGUGAAUCUGCCAAUUCUGCAGUAUAUCUC [G63C U72A]	0.4
UAACAGGGGGCCACAGCAGAAGCGUUCACGUCGCAGCCCCUGUCAGAUUCUGGUGAAUCUGCCAAUUCUGCCGUAUAUCUC [G63C U72C]	1.14
UAACAGGGGGCCACAGCAGAAGCGUUCACGUCGCAGCCCCUGUCAGAUUCUGGUGAAUCUGCGCAUUCUACUGUAUAUCUC [A64C G70A]	0.33
